According to patent publication US20230080224A1 (AGENCY FOR SCIENCE TECHNOLOGY AND RESEARCH, published 2023):
Numbering of substitutions follows the chain as printed.

T1: ALPI (screening and SPR/ELISA protein) (UniProt P09923 20-503, limits assumed)
T1 sequence (looked up): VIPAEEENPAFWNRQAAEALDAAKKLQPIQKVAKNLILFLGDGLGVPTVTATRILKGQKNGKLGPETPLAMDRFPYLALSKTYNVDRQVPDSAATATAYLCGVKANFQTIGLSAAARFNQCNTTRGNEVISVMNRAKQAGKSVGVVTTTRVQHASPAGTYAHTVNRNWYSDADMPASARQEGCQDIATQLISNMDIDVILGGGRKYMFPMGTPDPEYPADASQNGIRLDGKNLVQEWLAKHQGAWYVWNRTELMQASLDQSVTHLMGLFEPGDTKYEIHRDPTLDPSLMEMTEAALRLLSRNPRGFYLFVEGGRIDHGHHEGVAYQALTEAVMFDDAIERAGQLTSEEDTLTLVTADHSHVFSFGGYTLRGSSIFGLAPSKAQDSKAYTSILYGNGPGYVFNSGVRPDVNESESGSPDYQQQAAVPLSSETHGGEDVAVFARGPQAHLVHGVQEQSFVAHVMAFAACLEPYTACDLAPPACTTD

T2: human ALPPL2 (recombinant protein) (human, UniProt P10696 20-503)
T2 chain: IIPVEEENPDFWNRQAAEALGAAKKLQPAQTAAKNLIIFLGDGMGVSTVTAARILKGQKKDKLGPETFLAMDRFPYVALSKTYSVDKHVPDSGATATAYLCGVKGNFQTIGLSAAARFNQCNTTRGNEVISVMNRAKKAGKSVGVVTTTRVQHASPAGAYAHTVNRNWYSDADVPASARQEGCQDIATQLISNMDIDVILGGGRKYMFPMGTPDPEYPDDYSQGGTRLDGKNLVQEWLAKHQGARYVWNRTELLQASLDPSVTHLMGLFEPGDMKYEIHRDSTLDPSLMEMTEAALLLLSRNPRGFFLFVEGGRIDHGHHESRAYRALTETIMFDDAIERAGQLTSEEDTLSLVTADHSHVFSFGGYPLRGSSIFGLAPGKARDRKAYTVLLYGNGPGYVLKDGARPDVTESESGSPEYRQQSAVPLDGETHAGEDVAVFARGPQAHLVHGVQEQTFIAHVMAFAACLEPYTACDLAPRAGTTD

B1: AB1C35 (antibody, V domains shown)
VH: QEQLKESGGDLVKPGASLTLTCTASGFTLSTYWVCWVRQAPGKGLEWIGCIDTVSSGDTYFASWAKGRFTGSKTSSTTVTLQMTSLTAADTATYFCARRTGSRWTLWGPGTLVTVSS
VL: QVLTQTPSSVSAGVGGTVTINCQASESVYNNNYLSWYQQKPGQPPKLLIYQASTLASGVPSRFKGSGSGTQFTLTISDVQCDDAATYYCLGAFVSNGWYFAFGGGTEVVVK
notes: Rabbit antibody cloned from a single B cell
B2: AB1C17 (antibody, V domains shown)
VH: B1 VH with R103G
VL: LVMTQTPSPVSAAVGGTVTISCQSSQSVYNNNYLAWFQQNPGQPPKLLIYWASKLASGVPSRFKGSGSGTQFTLTISDVQCDDAATYYCLGAYVSNGWYFAFGGGTEVVVK
notes: as for B1
B3: AB1C28 (antibody, V domains shown)
VH: B1 VH with R103G
VL: B2 VL with T106I
notes: as for B1
B4: AB2C128 (antibody, V domains shown)
VH: QSLEESGGDLVKPGASLTLTCTASGFSFSSSYWIYWVRQAPGKGLEWIACIYTASRGSIYYASWTKGRFTISKTSSTTVTLQMTSLTAADTATYFCARGPDYTYGYIGDALTRLDLWGQGTLVTVSS
VL: AVLTQTPSPVSAAVGGTVSISCQSSQSVYDNNWLAWYQQKAGQPPKLLIYAASTLSSGVPSRFKGSGSGIEFTLTISDVQCDDAATYYCAGGYSSTSDIEDNTFGGGTEVVVK
notes: as for B1
B5: AB2C135 (antibody, V domains shown)
VH: B4 VH with Y35C, G57D, T65A, D101Y, T103S, G105A
VL: B4 VL with A41P, A51E, T54K, S56A, I70T, E71Q, D78G, A85S, T96S
notes: as for B1
B6: AB1C21 (antibody, V domains shown)
VH: QQQLVESGGGLVKPGASLTLTCKASGFSFSSGYDMCWVRQAPGKGLEWIACIYTGDGSTYYASWARGRFTISKTSSTTVTLQMTSLTAADTATYFCAREDVSSGDYTFNLWGPGTLVTVSS
VL: YDMTQTPASVEVTVGGTVTIKCQASEDIYSGLAWYQQKPGQRPKLLIYKASNLASGVPSRFSGSGSGTEFTLTISGVECADAATYYCQQGVTYSNVDNTFGGGTEVVVK
notes: as for B1
B7: AB1C14 (antibody, V domains shown)
VH: QSLEESGGDLVKPGASLTLTCTASGFSFSSNYWICWVRQAPGKGLEWIACIATGSSGSTYYASWAKGRFTISKTSSTTVTLQMTSLTAADTATYFCARGEYTYGYVEYAIVTQYYFDLWGPGTLVTVSS
VL: FEMTQTPSSVSAAVGGTVTINCQASQNIYSNLAWYQQKPGQRPKLLIYGASNLESGVPSRFKGSGSGTEYTLTISDLECDDAATYYCQSADYIGSAYNAFGGGTEVVVK
notes: as for B1
B8: AB1C15 (antibody, V domains shown)
VH: QSLEESGGDLVKPGASLTLTCTASGFSFSSSYYMCWVRQAPGKGLEWIACIYTTYGGTWYASWAKGRFTISKTSSTTVTLQMTSLTDADTATYFCARSSISDVTYFNLWGPGTLVTVSS
VL: DIVMTQTPASVEAAVGGTVTIKCQASQSISNYLAWYQQKPGQPPELLIYRASTLESGVPSRFKGSGSGTGFTLTISDLECADAATYYCQSYYDNNNYAFGGGTEVVVK
notes: as for B1
B9: AB1C23 (antibody, V domains shown)
VH: QSLEESGGDLVKPGASLTLTCTASGFSFSSTYYMCWVRQAPGKGLEWIACIYTGSTGSTYYASWAKGRFTGSKTSSTTVTLQMTSLTAADTATYFCARGDYTYAYAGGAHVTNYYFDLWGPGTLVTVSS
VL: LVMTQTPSSVSAAVGGTVTINCQASQNIYSNLAWYQQKPGQRPKLLIFGASNLESGVPSRFKGSGSGTEFTLTISDLECDDAATYYCQTADYSSSTDWGAFGGGTEVVVK
notes: as for B1
B10: AB1C13 (antibody, V domains shown)
VH: QEQLEESGGDLVKPEGSLTLTCTASGFSFSWICWVRQAPGKGLEWIACIYAGSSAKTYYASWAKGRFTISKASSTTVTLQMTSLTAADTATYFCARASNYYRYGVAGYADYTGYFNLWGPGTLVTVSS
VL: FELTQTPASVEAAVGGTVTIKCQASQSISSWLAWYHQKPGQRPKLLIYGTSTLASGVPSRFKGSGSGTEFTLTISDLECADAATYYCQNYGGSSSGDAFGGGTEVVVK
notes: as for B1
B11: AB1C34 (antibody, V domains shown)
VH: QSLEESGGDLVKPGASLTLTCTASGFDFSSNGMCWVRQAPGKGLEWIACIYVDSSDSTYYASWVNGRFTISKTSSTTVTLQMTSLTAADTATYFCARGYGYVGSAMDLWGQGTLVTVSS
VL: NIVMTQTPSPVSGAVGGTVTIKCQASQSISNELAWFQQKPGQRPKLLIYGASTLESGVPSRFSGSGSGTEFTLTISDLECADAATYYCQSAYYSSSSSYANTFGGGTEVVVK
notes: as for B1
B12: AB1C32 (antibody, V domains shown)
VH: QEQLEESGGDLVKPGGTLTLTCKASGIDFSSDYYMCWVRQAPGKGLEWIACIYTGSSDDTYYASWAKGRFTISKTSSPTVALQMTSLTAADTATYFCARGGYGGKDLWGPGTLVTVSS
VL: VVMTQTPASVEAAVGGTVTIKCQASQSIGSLLAWYQQKPGQPPNLLIYWASTLASGVPSRFKGSGSGTEFTLTISDLECDDAATYYCQCTYGSSGSSSYLNAFGGGTEVVVK
notes: as for B1
B13: AB2C103 (antibody, V domains shown)
VH: QSLEESGGDLVKPGASLTLTCTASGFDFSSYYWICWVRQAPGKGLEWIACIYGGSSGSTYYATWAKGRFTISETSSTTVTLQMTSLTAADMATYFCARSLYTWRYADYAASTLNLWGPGTLVTVSS
VL: AVLTQTPSPVSAAVGGTVSISCQSSQSVYNVNLLAWYQQKPGQPPKLLIYETSKLESGVPSRFSGSGSGTQFTLTISDVQCDDAATYYCAGGYSSSKDNSFGGGTEVVVK
notes: as for B1
B14: AB1C11 (antibody, V domains shown)
VH: QSLEESGGDLVKPGASLTLTCKASGFTISSIWICWVRQAPGKGLEWIACIYAGSDGGSYYASWARGRFTISKTSSTTVTLQMTSLTAADTATYFCARASNSWQYGYAGYGNYKDYFNLWGPGTLVTVSS
VL: FELTQTPSSVEAVVGGTVTINCQASESISNLLAWYQQKSGQPPKVLIYKASALPSGVSSRFKGSGSGTEFTLTISDLECADAATYYCQSYYGSSDTGNTFGGGTEVVVK
notes: as for B1

Target: T1, ALPI (screening and SPR/ELISA protein)
Test: screen of rabbit B-cell clones by ELISA and FACS
Text: (§1) Specific clones were screened and identified by ELISA and high throughput flow cytometry (FIG. 3). Rabbit kidney cells were transfected with either truncated (for ELISA screen) or full-length (for FACS screen) ALPI and ALPPL2.

Row | Binder | binding result
1 | B1 | no binding
2 | B2 | no binding
3 | B3 | no binding
4 | B4 | no binding
5 | B5 | no binding
6 | B6 | no binding
7 | B7 | no binding
8 | B8 | no binding
9 | B9 | no binding
10 | B10 | no binding
11 | B11 | no binding
12 | B12 | no binding
13 | B13 | no binding
14 | B14 | no binding

Target: T3, human ALPPL2 (recombinant protein) (human, UniProt P10696 20-503, limits assumed)
T3 construct: biotinylated where captured on streptavidin
Test: screen of rabbit B-cell clones by ELISA and FACS
Text: as §1

Row | Binder | binding result
15 | B1 | binds
16 | B2 | binds
17 | B3 | binds
18 | B4 | binds
19 | B5 | binds
20 | B6 | binds
21 | B7 | binds
22 | B8 | binds
23 | B9 | binds
24 | B11 | binds
25 | B12 | binds
26 | B13 | binds
27 | B14 | binds

Target: T2, human ALPPL2 (recombinant protein)
Test: BLI; single concentration

Row | Binder | Kd [nM]
28 | B1 | 4.1
29 | B6 | 1.4
30 | B8 | 0.6
